Results taken from patent EP0904107B1.

Experiments:
[1] = biological target: FcRn of the neonatal mouse intestine (mouse) (UniProt Q61559); experiment: cell-based or functional assay
[2] = biological target: recombinant soluble mouse FcRn (mouse) (UniProt Q61559); experiment: inhibition of 125I-sFcRn binding to murine IgG1-Sepharose; molar ratio of inhibitor/FcRn 1/500
[3] = biological target: recombinant soluble mouse FcRn (mouse) (UniProt Q61559); experiment: inhibition of 125I-sFcRn binding to murine IgG1-Sepharose; molar ratio of inhibitor/FcRn 1/1000
[4] = biological target: recombinant soluble mouse FcRn (mouse) (UniProt Q61559); experiment: SPR (BIAcore 2000), FcRn immobilised on CM5 chip, purified Fc-hinge fragment in flow, pH 6.0

| Substance | Inhibition of transmission (%) [1] [%] | % inhibition [2] [%] | % inhibition [3] [%] | Kd [4] [nM] | koff [4] [s⁻¹] | kon [4] [M⁻¹ s⁻¹] |
| --- | --- | --- | --- | --- | --- | --- |
| Fc fragment produced by papain digestion of murine IgG1 (from UniProt P01868 98-324) | 62.5 |  |  |  |  |  |
| Fc-hybrid: heterodimer of WT Fc-hinge and HQ-310/HN-433 mutant | 21.5 |  |  |  |  |  |
| HN-433 mutant Fc-hinge fragment | 44.4 |  |  |  |  |  |
| HQ-310 mutant Fc-hinge fragment | 8.9 |  |  |  |  |  |
| HQ-310/HN-433 mutant Fc-hinge fragment | 5.4 | 0.2 | 4 |  |  |  |
| I-253 mutant Fc-hinge fragment | 20.2 | 2.3 | 6.5 |  |  |  |
| bovine serum albumin (from UniProt P02769 25-607) | 8.9 |  |  |  |  |  |
| murine IgG1 (complete glycosylated IgG1 molecule) (antibody) | 51.4 | 24.7 | 45.6 |  |  |  |
| wild type (WT) Fc-hinge fragment derived from murine IgG1 | 55.3 | 18.4 | 34.1 | 7.44 | 0.00461 | 620000 |
